Assay results reported in patent US11653679B2, “High-purity steviol glycosides” (PureCircle Sdn Bhd, priority 2014, dated 2023).

Tests used:
Assay type in all cases: biochemical
[1] = Conversion of Rebaudioside E to Rebaudioside D with UGT76G1 lysate (Example 25); settings: UGT76G1 thawed lysate, 0.5 mM Rebaudioside E, pH 7.5, 30° C.
Procedure: The total volume of the reaction was 5.0 mL with the following composition: 100 mM potassium phosphate buffer pH 7.5, 3 mM MgCl2, 2.5 mM UDP-glucose, 0.5 mM Rebaudioside E and 500 μL of UGT76G1 thawed lysate (UGT76G1 gene was cloned in pET30a+ vector and expressed in E. coli BL21 (DE3)). The reactions were run at 30° C. on an orbitary shaker at 135 rpm. For sampling 300 μL of the reaction mixture was quenched with 30 μL of 2N H2SO4 and 270 μL of methanol/water (6/4). The samples were immediately centrifuged and kept at 10° C. before analysis by HPLC (CAD detection).

[2] = Transformation of Stevioside to Rebaudioside A with UGT76G1 lysate (Examples 4, 13), HPLC; settings: in-vivo produced UGT76G1 thawed lysate, 0.5 mM Stevioside, 30° C., HPLC (CAD)
Procedure: The total volume of the reaction was 5.0 mL with the following composition: 50 mM sodium phosphate buffer pH 7.2, 3 mM MgCl2, 2.5 mM UDP-glucose, 0.5 mM Stevioside and 500 μl, of UGT76G1 thawed lysate. The reactions were run at 30° C. on an orbitary shaker at 135 rpm. For each sample, 460 μL of the reaction mixture was quenched with 40 μL of 2N H2SO4 and 420 μL of methanol/water (6/4). The samples were immediately centrifuged and kept at 10° C. before analysis by HPLC (CAD).
(§1) Activity tests were performed on a 5 mL scale with 500 μL of thawed lysate for the transformation of Stevioside to Rebaudioside A and Rebaudioside D to Rebaudioside M using 0.5 mM of substrate, 2.5 mM of UDP-Glucose and 3 mM MgCl2 in 50 mM Sodium Phosphate buffer at pH 7.2. Samples were taken and analyzed by HPLC.

[3] = Transformation of Rebaudioside D to Rebaudioside M with UGT76G1 (Examples 6, 13), HPLC; settings: after 120 h, in-vitro produced UGT76G1, 0.5 mM Rebaudioside D, 30° C.
Procedure: The total volume of the reaction was 2 mL with the following composition: 50 mM sodium phosphate buffer pH 7.2, 3 mM MgCl2, 3.8 mM UDP-glucose, 0.5 mM Rebaudioside D and 180 μL of in-vitro produced UGT76G1. The reactions were run at 30° C. on an orbitary shaker at 135 rpm. For each sample, 400 μL of reaction mixture was quenched with 40 μL of 2N H2SO4 and 360 μL of 60% MeOH. After centrifugation, the supernatant was analyzed by HPLC (CAD).
as §1

[4] = Stevioside conversion products with UGTSL, UGTSL2, UGTLB by LCMS (Example 33); settings: reaction time UGTSL2 2 hrs, UGTLB 2 hrs, UGTSL 22 hrs
Procedure: (§2) Conversion of stevioside with UGTSL and UGTSL2 was conducted in similar manner to Example 28, and the conversion of rubusoside with UGTSL and UGTSL2 was conducted similarly to Example 29. Conversions of rubusoside and stevioside with UGTLB was conducted similarly to Example 32.
(§3) The reaction mixtures were analyzed by LCMS to determine all reaction products.

[5] = Activity for Rubusoside to Rebaudioside E conversion with UGTSL, UGTSL2, UGTLB (Examples 29, 32); settings: reaction time UGTSL 45 h., UGTSL2 2 h., 600 μL lysate, based on initial concentration of Rubusoside
Procedure: (§4) Activity tests were performed at 3 mL scale with 600 μL of lysate for the transformation of Rubusoside using 0.5 mM of substrate, 2.5 mM of UDP-Glucose and 3 mM MgCl2 in 50 mM Sodium Phosphate buffer at pH 7.2. Samples were taken and analyzed by HPLC. The HPLC assay was performed as described in EXAMPLE 20.
as §4, with “corresponding chromatograms are depicted” for “HPLC assay was performed as described”, “FIG. 63b.” for “EXAMPLE 20.”

[6] = Directed evolution of UGTSL2 round 2, initial rate for Rebaudioside D conversion (Example 48); settings: UGTSL2 round 2 clones; specificity
Procedure: The reaction was allowed to run at 30° C. and samples were taken after 2, 4, 6 and 22 h. to determine the initial rates for Rebaudioside D conversion after HPLC analysis (CAD detection).
(§5) Apart from the new variants, both experiments were also performed with baseline clone, UGTSL2. The initial rates for the conversion of Rebaudioside A or Rebaudioside D for this baseline clone were defined as 100%.
(§6) Activity of each clone was defined as normalized activity compared to baseline clone UGTSL2 whereas specificity of each clone was expressed as the ratio between the initial rates for the conversion of Rebaudioside A and Rebaudioside D.

[7] = Directed evolution of UGTSL2 round 2, initial rate for Rebaudioside A conversion (Example 48); settings: UGTSL2 round 2 clone lysates, 0.5 mM Rebaudioside A, 30° C., pH 7.2; baseline clone UGTSL2 defined as 100%
Procedure: (§7) In order to measure the activity of the variants for the transformation of Rebaudioside A to Rebaudioside D, 100 μL of fresh lysate was added to a solution of Rebaudioside A (final concentration 0.5 mM), MgCl2 (final concentration 3 mM) and UDP-Glucose (final concentration 2.5 mM) in 50 mM phosphate buffer pH 7.2. The reaction was allowed to run at 30° C. and samples were taken after 2, 4, 6 and 22 h. to determine the initial rates after HPLC analysis (CAD detection) using the analytical method that was described above for the transformation of Rebaudioside A to Rebaudioside D.
as §5, §6

[8] = Directed evolution of UGTSL2 round 3, initial rate for Rebaudioside D conversion (Example 53); settings: UGTSL2 round 3 clones; specificity
Procedure: In parallel 100 μL of fresh lysate was added to a solution of Rebaudioside D (final concentration 0.5 mM), MgCl2 (final concentration 3 mM) and UDP-Glucose (final concentration 2.5 mM) in 50 mM phosphate buffer pH 7.2. The reaction was allowed to run at 30° C. and samples were taken after 2, 4, 6 and 22 h. to determine the initial rates for Rebaudioside D conversion after HPLC analysis (CAD detection).
(§8) Apart from the new variants for this round, both experiments were also performed with baseline clone, UGTSL2. The initial rates for the conversion of Rebaudioside A or Rebaudioside D for this baseline clone were defined as 100%.
as §6

[9] = Activity for Stevioside to Rebaudioside E conversion with UGTSL, UGTSL2, UGTLB (Examples 28, 32); settings: reaction time UGTSL 22 h., UGTSL2 2 h., 600 μL lysate, based on initial concentration of Stevioside
Procedure: as §4, with “Stevioside” for “Rubusoside”, “HPLC. HPLC Analysis.” for “HPLC.”
as §4, with “Stevioside” for “Rubusoside”, “corresponding chromatograms are depicted” for “HPLC assay was performed as described”, “FIG. 63a.” for “EXAMPLE 20.”

[10] = Directed evolution of UGTSL2 round 3, initial rate for Rebaudioside A conversion (Example 53); settings: UGTSL2 round 3 clone lysates, 0.5 mM Rebaudioside A, 30° C., pH 7.2; baseline clone UGTSL2 defined as 100%
Procedure: as §7, §8, §6

[11] = Directed evolution of UGTSL2, Rebaudioside A to Rebaudioside D, round 1 (Example 45)
Procedure: Lysis was performed by addition of Bugbuster® Master mix (Novagen®) to the thawed cells and the lysate was recovered by centrifugation. […]
The reaction was allowed to run at 30° C. and samples were taken after 2, 4, 6 and 22 h. to determine the initial rate by HPLC (CAD detection) using the analytical method that was described above for the transformation of Rebaudioside A to Rebaudioside D. In parallel the experiments were performed with baseline clone, UGTSL2. The initial rate for this baseline clone was defined as 100%. As an indication of the specificity of the clones, Rebaudioside M2 content was determined at 100% UDP-Glucose conversion and Rebaudioside D2 content was determined at 50% UDP-Glucose conversion. Wherein UDP glucose conversion is defined as: ([Reb D]/[Reb A]0)+([Reb D2]/[Reb A]0)+2*([Reb M2]/[Reb A]0).
The normalized initial rate, Rebaudioside M2 content at 100% UDP-glucose conversion and Rebaudioside D2 content at 50% UDP-glucose conversion are depicted in the following table

[12] = Rubusoside conversion products with UGTSL, UGTSL2, UGTLB by LCMS (Example 33); settings: reaction time UGTSL2 2 hrs, UGTLB 5 hrs, UGTSL 45 hrs
Procedure: as §2, §3

[13] = Activity for Rebaudioside A to Rebaudioside D conversion with UGTSL2, UGTLB (Examples 30, 32); settings: 23 h., 60 μL lysate, based on initial concentration of Rebaudioside A
Procedure: as §4, with “60” for “600”, “Rebaudioside A” for “Rubusoside”
as §4, with “Rebaudioside A” for “Rubusoside”, “corresponding chromatogram after 23 h. of reaction is depicted” for “HPLC assay was performed as described”, “FIG. 63c.” for “EXAMPLE 20.”

[14] = 0.5 mM substrate, 2.5 mM UDP-Glucose, pH 7.2
[15] = UGTSL2 round 1 clones, indication of specificity

B1: UGT76G1: UDP-glucosyltransferase UGT76G1 [Stevia rebaudiana], Genbank AAR06912.1, SEQ ID NO:11 (protein, listed as Stevia rebaudiana)
chain: MENKTETTVRRRRRIILFPVPFQGHINPILQLANVLYSKGFSITIFHTNFNKPKTSNYPHFTFRFILDNDPQDERISNLPTHGPLAGMRIPIINEHGADELRRELELLMLASEEDEEVSCLITDALWYFAQSVADSLNLRRLVLMTSSLFNFHAHVSLPQFDELGYLDPDDKTRLEEQASGFPMLKVKDIKSAYSNWQILKEILGKMIKQTKASSGVIWNSFKELEESELETVIREIPAPSFLIPLPKHLTASSSSLLDHDRTVFQWLDQQPPSSVLYVSFGSTSEVDEKDFLEIARGLVDSKQSFLWVVRPGFVKGSTWVEPLPDGFLGERGRIVKWVPQQEVLAHGAIGAFWTHSGWNSTLESVCEGVPMIFSDFGLDQPLNARYMSDVLKVGVYLENGWERGEIANAIRRVMVDEEGEYIRQNARVLKQKADVSLMKGGSSYESLESLVSYISSL
[1]
  conversion of Rebaudioside E to Rebaudioside D: complete conversion
[2]
  conversion of stevioside to rebaudioside A: almost complete conversion
[3]
  conversion of rebaudioside D to rebaudioside M: 80%

B2: UGTSL2: UDP-glucosyltransferase, Solanum lycopersicum, SEQ ID NO:9 (protein, listed as Solanum lycopersicum)
chain: MATNLRVLMFPWLAYGHISPFLNIAKQLADRGFLIYLCSTRINLESIIKKIPEKYADSIHLIELQLPELPELPPHYHTTNGLPPHLNPTLHKALKMSKPNFSRILQNLKPDLLIYDVLQPWAEHVANEQNIPAGKLLTSCAAVFSYFFSFRKNPGVEFPFPAIHLPEVEKVKIREILAKEPEEGGRLDEGNKQMMLMCTSRTIEAKYIDYCTELCNWKVVPVGPPFQDLITNDADNKELIDWLGTKHENSTVFVSFGSEYFLSKEDMEEVAFALELSNVNFIWVARFPKGEERNLEDALPKGFLERIGERGRVLDKFAPQPRILNHPSTGGFISHCGWNSAMESIDFGVPIIAMPIHNDQPINAKLMVELGVAVEIVRDDDGKIHRGEIAETLKSVVTGETGEILRAKVREISKNLKSIRDEEMDAVAEELIQLCRNSNKSK
[4]
  LC-MS, peak area ratio (%): Reb D: 1.70%
  LC-MS, peak area ratio (%): Reb E: 42.56%
  LC-MS, peak area ratio (%): Stev: 20.01%
  LC-MS, peak area ratio (%): Unknown peak #1 (MW966) RT = 22.60 min: 4.48%
  LC-MS, peak area ratio (%): Unknown peak #2 (MW966) RT = 26.50 min: 5.56%
  LC-MS, peak area ratio (%): Unknown peak #3 (MW966) RT = 29.50 min: 25.70%
[5]; 0.5 mM Rubusoside
  Rebaudioside E formation: 55%
[5]; [14]
  Rubusoside conv. (reaction time): 80% (2 h.)
[6]
  Ratio between initial rates for the conversion of Rebaudioside A and Rebaudioside D: 1.67
[7]
  Normalized initial rate for conversion of Rebaudioside A: 100%
[8]
  Ratio between initial rates for the conversion of Rebaudioside A and Rebaudioside D: 1.67
[9]; 0.5 mM Stevioside
  Rebaudioside E formation: 50%
[9]; [14]
  Stevioside conv. (reaction time): 77% (2 h.)
[10]
  Normalized initial rate for conversion of Rebaudioside A: 100%
[11]; UGTSL2 round 1 clone lysates, 30° C., pH 7.2, HPLC (CAD), baseline clone UGTSL2 defined as 100%
  Normalized initial rate (0-4 h): 100%
[11]; [15]
  Reb D2 content at 50% UDP-Glc conversion: 12.5%
  Reb M2 content at 100% UDP-Glc conversion: 100%
[12]
  LC-MS, peak area ratio (%): REb E: 52.88%
  LC-MS, peak area ratio (%): Reb D: 6.73%
  LC-MS, peak area ratio (%): Rub: 3.54%
  LC-MS, peak area ratio (%): Stev: 2.12%
  LC-MS, peak area ratio (%): Unknown peak #1 (MW804) RT 30.70 min: 12.02%
  LC-MS, peak area ratio (%): Unknown peak #2 (MW804) RT 49.50 min: 9.94%
  LC-MS, peak area ratio (%): Unknown peak #3 (MW804) RT 50.40 min: 12.77%
[13]; 0.5 mM Rebaudioside A
  Rebaudioside D formation: 75%
[13]; [14]
  Rebaudioside A conv. (reaction time): 78% (23 h.)
